Results from article PMC2377097.

Target: Unc45b^Flag, bacteria expressed and purified (mouse) (UniProt Q8CGY6)
Assay: pull-down; apparent; skeletal MD::GFP synthesized in the coupled assay, incubated with 0-2000 nM Unc45b^Flag 1 hr at 25°C, then anti-Flag beads 1 hr at 25°C; silver stain and autoradiography

Chain of Unc45b^Flag, bacteria expressed and purified (mouse) (Q8CGY6 whole entry): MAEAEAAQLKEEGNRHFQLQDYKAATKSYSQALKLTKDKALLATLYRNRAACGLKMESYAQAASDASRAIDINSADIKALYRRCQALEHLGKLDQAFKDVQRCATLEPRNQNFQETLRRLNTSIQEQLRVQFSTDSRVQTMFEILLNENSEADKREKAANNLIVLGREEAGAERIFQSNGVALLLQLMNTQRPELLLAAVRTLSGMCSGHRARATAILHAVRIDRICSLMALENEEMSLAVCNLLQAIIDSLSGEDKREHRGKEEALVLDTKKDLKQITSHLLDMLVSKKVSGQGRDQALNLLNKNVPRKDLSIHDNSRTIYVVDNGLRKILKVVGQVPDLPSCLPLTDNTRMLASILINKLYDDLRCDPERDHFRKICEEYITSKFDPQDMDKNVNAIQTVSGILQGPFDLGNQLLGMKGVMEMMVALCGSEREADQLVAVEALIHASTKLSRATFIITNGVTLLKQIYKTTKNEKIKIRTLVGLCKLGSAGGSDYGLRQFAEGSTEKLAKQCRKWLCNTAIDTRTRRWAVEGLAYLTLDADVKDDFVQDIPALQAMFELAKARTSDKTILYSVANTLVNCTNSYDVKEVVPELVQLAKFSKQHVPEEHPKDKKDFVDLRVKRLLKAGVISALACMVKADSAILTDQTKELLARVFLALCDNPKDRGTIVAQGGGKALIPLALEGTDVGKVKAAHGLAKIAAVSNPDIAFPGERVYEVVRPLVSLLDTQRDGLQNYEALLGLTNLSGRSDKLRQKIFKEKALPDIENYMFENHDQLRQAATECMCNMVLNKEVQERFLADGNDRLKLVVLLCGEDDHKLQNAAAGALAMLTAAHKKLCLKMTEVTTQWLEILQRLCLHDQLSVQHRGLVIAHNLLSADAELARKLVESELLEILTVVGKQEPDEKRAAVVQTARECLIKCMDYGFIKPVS

“skeletal muscle MD::GFP chimera (Sk795GFP) (domain or fragment)” showed a Kd of 510 nM.
